For one sequence, binding signal (SILAC ratio q/Q) results are on record in publication PMC2854606.

In the data set the target is T1, endogenous MGR (Mus musculus (C2C12 myoblasts)) (UniProt D2EAC2).
T1 sequence: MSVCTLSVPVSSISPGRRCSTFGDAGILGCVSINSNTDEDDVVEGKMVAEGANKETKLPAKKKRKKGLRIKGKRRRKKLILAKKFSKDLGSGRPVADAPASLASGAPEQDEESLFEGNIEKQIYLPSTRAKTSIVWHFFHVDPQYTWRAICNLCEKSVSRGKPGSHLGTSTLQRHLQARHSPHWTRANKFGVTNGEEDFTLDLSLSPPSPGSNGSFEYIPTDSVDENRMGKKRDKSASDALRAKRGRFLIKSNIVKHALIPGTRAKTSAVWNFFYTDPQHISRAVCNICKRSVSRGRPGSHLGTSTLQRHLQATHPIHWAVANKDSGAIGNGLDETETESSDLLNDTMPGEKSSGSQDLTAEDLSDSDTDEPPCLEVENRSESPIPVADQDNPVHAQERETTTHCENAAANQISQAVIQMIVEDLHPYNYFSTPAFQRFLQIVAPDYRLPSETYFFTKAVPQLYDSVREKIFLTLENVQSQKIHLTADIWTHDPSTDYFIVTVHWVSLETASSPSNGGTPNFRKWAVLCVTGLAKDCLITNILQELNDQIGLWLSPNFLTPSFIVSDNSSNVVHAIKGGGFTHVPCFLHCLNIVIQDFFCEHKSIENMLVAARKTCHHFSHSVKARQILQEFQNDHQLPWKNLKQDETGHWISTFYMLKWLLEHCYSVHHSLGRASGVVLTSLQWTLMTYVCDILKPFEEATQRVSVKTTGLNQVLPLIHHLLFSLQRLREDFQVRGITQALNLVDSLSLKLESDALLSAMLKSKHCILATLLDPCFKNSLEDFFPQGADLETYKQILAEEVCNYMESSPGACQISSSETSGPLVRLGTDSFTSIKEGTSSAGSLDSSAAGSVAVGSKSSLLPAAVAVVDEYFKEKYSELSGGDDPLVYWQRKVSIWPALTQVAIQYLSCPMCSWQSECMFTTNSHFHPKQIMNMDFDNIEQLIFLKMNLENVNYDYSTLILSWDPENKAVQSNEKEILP
Description: pull-down, SILAC MS.

On to “TTCAAAACTGCAGGATCCTTCGCCTAGGCTCGCAGCGCGGGAGCGA / AATCGCTCCCGCGCTGCGAGCCTAGGCGAAGGATCCTGCAGTTTTG [porcine IGF2 q (pulldown)]”, for which the binding signal (SILAC ratio q/Q) amounted to 5.5.
